Columns and labels:
[1] = target: 78-kDa glucose-regulated protein (GRP78) (UniProt P11021); assay: flow cytometry, irradiated A549 cells, gMFI minus secondary only, one site-specific binding fit
[2] = target: 78-kDa glucose-regulated protein (GRP78) (UniProt P11021); assay: flow cytometry, irradiated A549 cells, % of positive cells, 4PL fit
[3] = target: recombinant GRP78 full length protein (UniProt P11021); assay: Biacore, recombinant full length GRP78, scFv1171-Fc from 500 nM in two-fold dilutions
[4] = target: recombinant GRP78 full length protein (UniProt P11021); assay: Biacore, recombinant full length GRP78, scFv1183-Fc from 500 nM in two-fold dilutions

Chain of recombinant GRP78 full length protein (P11021 19-654 limits assumed): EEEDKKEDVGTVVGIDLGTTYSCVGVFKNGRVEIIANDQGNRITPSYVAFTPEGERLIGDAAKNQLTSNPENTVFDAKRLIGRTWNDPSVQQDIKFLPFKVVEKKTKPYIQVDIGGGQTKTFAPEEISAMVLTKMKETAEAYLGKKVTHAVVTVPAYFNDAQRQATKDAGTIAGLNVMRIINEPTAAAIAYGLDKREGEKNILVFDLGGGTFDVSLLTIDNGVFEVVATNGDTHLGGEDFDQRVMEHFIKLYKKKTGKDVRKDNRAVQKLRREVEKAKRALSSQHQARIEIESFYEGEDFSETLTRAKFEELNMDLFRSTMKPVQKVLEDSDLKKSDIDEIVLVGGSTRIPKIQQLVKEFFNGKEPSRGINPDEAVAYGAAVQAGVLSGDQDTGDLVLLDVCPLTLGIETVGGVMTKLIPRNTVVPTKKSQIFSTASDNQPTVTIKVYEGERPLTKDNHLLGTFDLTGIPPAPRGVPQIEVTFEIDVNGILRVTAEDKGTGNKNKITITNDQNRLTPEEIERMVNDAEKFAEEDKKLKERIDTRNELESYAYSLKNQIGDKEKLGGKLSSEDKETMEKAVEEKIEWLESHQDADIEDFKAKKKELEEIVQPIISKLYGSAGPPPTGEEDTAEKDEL
Chain of 78-kDa glucose-regulated protein (GRP78) (P11021 19-654 limits assumed): as above

Kd [1] | EC50 [2] | Kd [3] | koff [3] | kon [3] | Kd [4] | koff [4] | kon [4] | Binder
18.7 nM | 16.8 nM | 4.77 nM | 0.00324 s⁻¹ | 679000 M⁻¹ s⁻¹ | – | – | – | anti-GRP78 scFv-Fc 1171 (Fc fusion, part only; not given: Linker, domain order, Fc, not shown: another chain or arm of the molecule; a dimerising Fc or GST; small tags and cut ends) VH: QVQLVQSGAEVKKPGSSVKVSCKSSGGTFSNPVISWVRQAPGQGLEWMGGIITMFGTTYYGNSVRGRFIVSRDNSKNMLFLQMNSLRAEDTAVYYCAKDPPMFDYWGQGTLVTVS VL: DIQLTQSPSSLSASVGDRVTITCRASQSISSYLNWYQQKPGKAPKLLIYDASNLETGVPSRFSGSGSGTDFTFTISSLQPEDIATYYCQQYDNLLALTFGGGTKVDIK
– | – | – | – | – | 8.4 nM | 0.00793 s⁻¹ | 944000 M⁻¹ s⁻¹ | anti-GRP78 scFv-Fc 1183 (Fc fusion, part only; not given: Linker, domain order, Fc, not shown: another chain or arm of the molecule; a dimerising Fc or GST; small tags and cut ends) VH: QMQLVQSGAEVKKPGSSVKVSCKASGGTFSSYAISWVRQAPGQGLEWMGWISAYNGNTNYAQKLQGRVTMTTDTSTSTAYMELRSLRSDDTAVYYCARDPPLRYFDWFRGSDWFDPWGQGTLVTVS VL: NFMLTQPHSVSESPGKTVTISCTRSSGSIASNYVQWYQQRPGSSPTTVIYEDNQRPSGVPDRFSGSIDSSSNSASLTISGLKTEDEADYYCQSYDSTNGVFGGGTKLTVL
